Experiments:
[1] = target: T1, PSMGFR peptide (MUC1* extracellular domain) (Homo sapiens, UniProt P15941); assay: Sandwich ELISA: NME7-AB dimerizes MUC1* extra cellular domain peptide; assay type: binding
T1 construct: The PSMGFR peptide bearing a C-terminal Cysteine (PSMGFR-Cys) was covalently coupled to BSA; made in house; host or cells: E. coli (NME7-AB)
T1 sequence (P15941 1110-1154 limits assumed) 1: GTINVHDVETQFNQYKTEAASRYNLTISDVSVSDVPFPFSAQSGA
T1 sequence (Q9Y5B8 92-376 partner limits assumed): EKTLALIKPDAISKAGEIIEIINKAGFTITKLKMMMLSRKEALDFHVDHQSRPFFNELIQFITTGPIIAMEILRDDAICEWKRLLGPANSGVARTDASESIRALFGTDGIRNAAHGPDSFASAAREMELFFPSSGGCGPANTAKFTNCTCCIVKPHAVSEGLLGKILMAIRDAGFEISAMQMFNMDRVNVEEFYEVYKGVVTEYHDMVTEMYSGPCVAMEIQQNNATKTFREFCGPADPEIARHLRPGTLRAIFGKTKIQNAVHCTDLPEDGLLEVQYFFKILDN
T1 sequence (P15941 1110-1154 limits assumed) 3: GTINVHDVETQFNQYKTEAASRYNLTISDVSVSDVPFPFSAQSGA
Procedure: The PSMGFR peptide bearing a C-terminal Cysteine (PSMGFR-Cys) was covalently coupled to BSA using Imject Maleimide activated BSA kit (Thermo Fisher). PSMGFR-Cys coupled BSA was diluted to 10 ug/mL in 0.1M carbonate/bicarbonate buffer pH 9.6 and 50 uL was added to each well of a 96 well plate. After overnight incubation at 4° C., the plate was washed twice with PBS-T and a 3% BSA solution was added to block remaining binding site on the well. After 1 h at RT the plate was washed twice with PBS-T and NME7, diluted in PBS-T+1% BSA, was added at different concentrations. After 1 h at RT the plate was washed 3× with PBS-T and anti-NM23-H7 (B-9, Santa Cruz Biotechnology), diluted in PBS-T+1% BSA, was added at 1/500 dilution. […] After 1 h at RT the plate was washed 3× with PBS-T and binding of NME7 was measured at 415 nm using ABTS solution (Pierce). […]
After 1 h at RT the plate was washed 3× with PBS-T and HisTagged PSMGFR peptide (PSMGFR-His) or biotinylated PSMGFR peptide (PSMGFR-biotin), diluted in PBS-T+1% BSA, was added at different concentration. […] After 1 h at RT the plate was washed 3× with PBS-T and binding of PSMGFR peptide to NME7 already bound to another PSMGFR peptide (which could not signal by anti-His antibody or by streptavidin) coupled BSA was measured at 415 nm using a ABTS solution (Pierce).

[2] = tested on: MDA-MB breast cancer cell line; assay: RT-PCR of metastatic markers after culture in NME7-AB, MDA-MB; assay type: cell-based, human; conditions: serum-free media containing NME7-AB
Procedure: FIGS. 37A-37C show graphs of RT-PCR measurements of metastatic markers in cancer cells after being cultured in a serum-free media containing NME7-AB compared to the standard media.
Ovarian cancer cells, pancreatic cancer cells and melanoma cells were also cultured in NME7-AB and were transformed to a more metastatic state after as few as 3 days in culture.

[3] = tested on: Human stem cells (iPS cat #SC101a-1); assay: Human stem cell growth and pluripotency in NME7-AB or NM23-H1 dimers; assay type: cell-based; conditions: for pluripotent stem cell growth / differentiation: 8 nM in Minimal Stem Cell Media
Procedure: For testing recombinant NME7-AB for ability to maintain pluripotency and inhibit differentiation, a soluble variant of NME7, NME7-AB, was generated and purified. Human stem cells (iPS cat #SC101a-1, System Biosciences) were grown per the manufacturer's directions in 4 ng/ml bFGF over a layer of mouse fibroblast feeder cells for four passages. These source stem cells were then plated into 6-well cell culture plates (Vita™, Thermo Fisher) that had been coated with 12.5 ug/well of a monoclonal anti-MUC1* antibody, MN-C3. Cells were plated at a density of 300,000 cells per well. The base media was Minimal Stem Cell Media consisting of: 400 ml DME/F12/GlutaMAX I (Invitrogen #10565-018), 100 ml Knockout Serum Replacement (KO-SR, Invitrogen #10828-028), 5 ml 100×MEM Non-essential Amino Acid Solution (Invitrogen #11140-050) and 0.9 ml (0.1 mM) β-mercaptoethanol (55 mM stock, Invitrogen #21985-023). The base media can be any media. In a preferred embodiment, the base media is free of other growth factors and cytokines. To the base media was added either 8 nM of NME7-AB or 8 nM NM23-H1 refolded and purified as stable dimers. Media was changed every 48 hours and due to accelerated growth, had to be harvested and passaged at Day 3 post-plating.
Cell counts at the first harvest verified that culture in NME7 produced 1.4-times more cells than culture in NM23-H1 dimers.

B1: NME7-AB: recombinant human NME7 devoid of the DM10 domain, NDPK A and B domains, about 33 kDa monomer (protein)
chain: MEKTLALIKPDAISKAGEIIEIINKAGFTITKLKMMMLSRKEALDFHVDHQSRPFFNELIQFITTGPIIAMEILRDDAICEWKRLLGPANSGVARTDASESIRALFGTDGIRNAAHGPDSFASAAREMELFFPSSGGCGPANTAKFTNCTCCIVKPHAVSEGLLGKILMAIRDAGFEISAMQMFNMDRVNVEEFYEVYKGVVTEYHDMVTEMYSGPCVAMEIQQNNATKTFREFCGPADPEIARHLRPGTLRAIFGKTKIQNAVHCTDLPEDGLLEVQYFFKILDN
B1 was tested, and the “simultaneous binding of PSMGFR peptides” value [1] was “simultaneously binds to two PSMGFR peptides”, the “metastatic marker expression after culture in NME7-AB” value [2] was “increased expression of metastatic markers CDH1 aka E-cadherin and SOX2” and the “pluripotent stem cell growth / differentiation” value [3] was “fully supported human stem cell growth, pluripotency, and resisted differentiation”. For the same molecule, the “pluripotent stem cell growth / differentiation” value ([3]; listed as NME7) was “no differentiation even when 100% confluent” and the “cell number relative to culture in NM23-H1 dimers” value ([3]; 8 nM, cell counts at first harvest) was 1.4 times.

Reference: patent US12479928B2, “Anti-cancer peptide” (Minerva Biotechnologies Corporation, priority 2014, dated 2025)
